Assay results: US8629107B2, “Genes and proteins associated with angiogenesis and uses thereof” (National Jewish Health, priority 2005, dated 2014)
Entries after “also recorded” stand apart in the source; their conditions may differ.

B1: MAGP-2: secreted glycoprotein (25 kDa); stably expressed in MB114 cells by bicistronic retroviral transduction, Myc-His tagged (protein)
chain: QRGDDVPETFTDDPNLVNDPSTDDTALADITPSTDDLAGDKNATAECRDEKFACTRLYSVHRPVRQCVHQSCFTSLRRMYIINNEICSRLVCKEHEAMKDELCRQMAGLPPRRLRRSNYFRLPPCENMNLQRPDGL
modifications: left off: small tags and cut ends
notes: secreted glycoprotein (25 kDa); stably expressed in MB114 cells by bicistronic retroviral transduction, Myc-His tagged
B2: rMAGP-2: recombinant FLAG-tagged MAGP-2 purified from bacterial cell extracts by anti-FLAG chromatography (protein, UniProt Q9QZJ6 29-164, looked up)
Microfibrillar-associated …: B1 chain
modifications: FLAG tag
notes: recombinant FLAG-tagged MAGP-2 purified from bacterial cell extracts by anti-FLAG chromatography

Columns and labels:
[1] = tested on: Hes1 promoter (Notch1 signaling); assay: Hes1-driven luciferase reporter gene assay in HUVEC cells; format: cell-based, human; parameters: dose or concentration left out as unconfirmed
Experimental: (§1) The effect putative angiogenic agents had on MB114 cell activities were determined as follows: (i) cell proliferation using a [^3H]thymidine incorporation assay as described (Albig et al, 2006; Albig and Schiemann, 2004; Albig and Schiemann, 2005); (ii) cell invasion through Matrigel matrices using a modified Boyden-chamber assay as described (Albig et al, 2006; Albig and Schiemann, 2004; Albig and Schiemann, 2005); (iii) p38 MAPK phosphorylation using immunoblot analyses as described (Albig et al, 2006; Albig and Schiemann, 2004; Albig and Schiemann, 2005); (iv) angiogenic sprouting in rat tail collagen matrices as described (Albig et al, 2006; Albig and Schiemann, 2004); and (v) Hes1- and SBE-driven luciferase reporter gene assays as described (Albig et al, 2006; Albig and Schiemann, 2004; Albig and Schiemann, 2005).
MAGP-2 can interact physically with Notch1 and its ligand, Jagged-1 (Miyamoto et al, 2006; Nehring et al, 2005), resulting in the ectodomain shedding of both molecules from the cell surface. […] To test this hypothesis, first measured were changes in luciferase expression driven by a Hes1-luciferase reporter gene whose expression is induced by Notch1 activation (Iso et al, 2003). […] Afterward, luciferase and β-gal activities contained in detergent-solubilized cell extracts were measured. […] Afterward, luciferase and β-gal activities were measured as above. […]

[2] = tested on: Hes1 promoter (Notch1 signaling); assay: Hes1-driven luciferase reporter gene assay in MB114 cells; format: cell-based, murine
Experimental: as §1
MAGP-2 can interact physically with Notch1 and its ligand, Jagged-1 (Miyamoto et al, 2006; Nehring et al, 2005), resulting in the ectodomain shedding of both molecules from the cell surface. Notch signaling also plays an essential role in regulating normal vessel development and angiogenesis in mammals (Leong and Karsan, 2005; Shawber and Kitajewski, 2004). Given these two facts, the inventors hypothesized that MAGP-2 promotes angiogenesis by modulating Notch1 signaling. To test this hypothesis, first measured were changes in luciferase expression driven by a Hes1-luciferase reporter gene whose expression is induced by Notch1 activation (Iso et al, 2003). MB114 and HUVEC cells were transiently transfected either with pHes1-luciferase, pCMV-β-gal, and MAGP-2 cDNAs, or with pHes1-luciferase and pCMV-β-gal cDNAs and subsequently stimulated with rMAGP-2 (1 or 5 mg/ml). Afterward, luciferase and β-gal activities contained in detergent-solubilized cell extracts were measured. In addition, GFP- and MAGP-2-expressing MB114 cells were transiently transfected with pHes1-luciferase and pCMV-β-gal cDNAs, together with or without Jagged-1 cDNA as indicated. Afterward, luciferase and β-gal activities were measured as above.
To further investigate the impact of MAGP-2 on Notch1 processing and NICD accumulation, the inventors took advantage of recent findings showing that the ability of TGF-β to induce Hes1 promoter activity requires Smad3 to interact physically with NICD (Blokzijl et al, 2003), a reaction that is dispensable for canonical Smad3-mediated signaling stimulated by TGF-β (Blokzijl et al, 2003). It was therefore reasoned that the ability of MAGP-2 to inhibit NICD production in ECs would reduce the capacity of TGF-β to induce luciferase expression driven by the Hes1 promoter, but not that driven by the synthetic Smad2/3-binding element (SBE). GFP- and MAGP-2-expressing MB114 cells were transiently transfected with either pHes1- or pSBE-luciferase, both together with pCMV-β-gal as indicated in FIG. 4B. Afterward, the resulting transfectants were stimulated overnight with increasing concentrations of TGF-β1 (0-5 ng/ml).
Based on the findings described in the Examples above, the inventors hypothesized that MAGP-2 promotes angiogenesis by antagonizing Notch1 signaling. To test this hypothesis, it was first determined whether inhibiting Notch signaling in MB114 cells would enhance their angiogenic sprouting. […] Afterward, luciferase and β-gal activities were determined. […]

MB114 cells = assay: angiogenic sprouting in rat tail collagen matrices; format: cell-based, murine
Experimental: as §1
Finally, it was determined whether expression of these putative angiogenic factors could effect the angiogenic sprouting of quiescent MB114 cells monolayers. MB114 cells expressing either GFP or various putative angiogenic agents were grown to confluency, and subsequently were overlaid with rat tail collagen matrices. Angiogenic sprouting by quiescent EC monolayers was stimulated by inclusion of 10% FBS and allowed to proceed for 5 days. The quantity of invading angiogenic sprouts was determined by manual counting under a light microscope.
Based on the findings described in the Examples above, the inventors hypothesized that MAGP-2 promotes angiogenesis by antagonizing Notch1 signaling. To test this hypothesis, it was first determined whether inhibiting Notch signaling in MB114 cells would enhance their angiogenic sprouting. In doing so, MB114 cells were transiently transfected with the Hes1-luciferase reporter gene (and pCMV-β-gal cDNA as control), and subsequently were treated overnight with or without the highly specific gamma-secretase inhibitor, DAPT (Sastre et al, 2001), which inhibits S3-mediated cleavage of Notch1 and, consequently, NICD-mediated induction of Hes1 expression. Afterward, luciferase and β-gal activities were determined. […] In this experiment, quiescent MB114 cell monolayers were overlaid with rat tail collagen matrices, and were induced to form angiogenic sprouts by addition of 10% FBS supplemented with or without DAPT (10 μM). Five days later the number of invading angiogenic spouts were quantified by manual counting on a light microscope. Based on these findings, the inventors conclude that Notch activation functions in mediating angiostasis in MB114 cells. […] Collectively, these findings indicate that Notch1 signaling antagonizes angiogenic sprouting in MB114 cells, and that downregulation of Notch1 signaling components is necessary for angiogenesis activation in MB114 cells.
Having shown that Notch1 signaling mediates angiostasis in MB114 cells, the inventors next asked whether MAGP-2 promotes angiogenesis in MB114 cells via its ability to antagonize Notch signaling. To do so, MAGP-2-expressing MB114 cells were engineered to constitutively express active Notch1 NICD fragment in an attempt to overcome the block of Notch processing mediated by MAGP-2. More particularly, GFP-, MAGP-2-, and MAGP-2/N1ICD-expressing MB114 cells were transiently transfected with pHes1-luciferase and pCMV-β-gal cDNAs. Luciferase and β-gal activities were determined 48 h post-transfection. As the inventors observed previously, MAGP-2 expression reduced Hes1-luciferase activity in MB114 cells (FIG. 5C), a reaction that was bypassed by co-expression of NICD in these cells (FIG. 5C). […] In this experiment, quiescent monolayers of GFP-, MAGP-2-, and MAGP-2/N1ICD-expressing MB114 cells were overlaid with rat tail collagen matrices and incubated in the absence or presence of 10% FBS for 5 days. Afterward, the number of invading angiogenic sprouts were determined by manual counting under a light microscope.

Molecule	Hes1-driven luciferase activity ([1]; MAGP-2 expression in HUVEC cells)	ability of Jagged-1 to induce Hes1-luciferase activity ([2]; MAGP-2-expressing vs GFP-expressing MB114 cells, with Jagged-1 cDNA)	ability of TGF-β to stimulate Hes1-luciferase activity ([2]; MAGP-2-expressing vs GFP-expressing MB114 cells, TGF-β1 0-5 ng/ml overnight)	Hes1-driven luciferase activity ([2]; MAGP-2 expression in MB114 cells)	angiogenic sprouting of quiescent MB114 cell monolayers (MB114 cells; MB114 cells stably expressing the transgene vs GFP, 10% FBS, 5 days)	Hes1-driven luciferase activity ([1]; HUVEC cells stimulated with recombinant protein)	Hes1-driven luciferase activity ([2]; MB114 cells stimulated with recombinant protein, 1 or 5 mg/ml)	angiogenic sprouting of quiescent MB114 cell monolayers (MB114 cells; purified recombinant protein added, 1 μg/ml)
B1	repressed	abrogated	significantly decreased	repressed; also recorded: reduced	significantly increased	–	–	–
B2	–	–	–	–	–	repressed	repressed	stimulated
